The numbers were not newly measured in publication PMC11784315, which cites them from elsewhere.

The data set has as its target Spike S1 S1 (Severe acute respiratory syndrome coronavirus 2) (UniProt P0DTC2).

Chain of DC-SIGN (Q9NNX6 whole entry): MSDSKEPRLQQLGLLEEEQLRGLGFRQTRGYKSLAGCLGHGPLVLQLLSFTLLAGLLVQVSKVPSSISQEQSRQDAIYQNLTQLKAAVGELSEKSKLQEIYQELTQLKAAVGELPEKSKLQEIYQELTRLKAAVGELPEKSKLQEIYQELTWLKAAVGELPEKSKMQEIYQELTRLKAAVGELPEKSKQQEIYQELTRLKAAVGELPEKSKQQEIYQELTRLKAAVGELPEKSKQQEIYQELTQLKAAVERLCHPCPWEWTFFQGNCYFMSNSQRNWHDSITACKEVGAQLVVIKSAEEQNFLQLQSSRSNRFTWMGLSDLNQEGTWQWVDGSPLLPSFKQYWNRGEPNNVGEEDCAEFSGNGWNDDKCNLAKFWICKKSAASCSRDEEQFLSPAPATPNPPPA

As usually defined, the Kd is the concentration at which binding is half-saturated. Consider DC-SIGN (from UniProt Q9NNX6), for which the Kd is 420 nM.
